Source: the domain aggregation screens of Martell et al. (2025)

Assay: soluble fraction after stress (log2 fold change); higher = more stays soluble; pooled small domains, quantitative proteomics
Conditions: stress: 75 degC
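Also: 20 min heating vs room temperature control held 20 min.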

## HMIPDLPAIGENLYRERKRQQLSMAELAAASGISKAMLSQIEADKVNPTIATLWKIAHALHVDLESLISGG
  soluble fraction (log2): -0.965

## HMIPDPEKVMFDGGIRLLTQAGITEGKARSILGKWKRDHETERIIAALGAAQREGAIEPVSFIERVLRN
  soluble fraction (log2): -0.24

## HMIPKIIDITDLNEEVREVIEEYMKRKRVEKYHIYQDSKGQIFIISGSAIIRYDSKLNNLYYL
  soluble fraction (log2): -2.45

## HMIPLKTEAIPVSYGDGAAIIRSLAVAFPSRTFHWDAQTRRIIGQALDEEWQVIRSLVWQLDIP
  soluble fraction (log2): -1.83

## HMIPLSDEETILLKLLEATETHLDALIRGSQLSAAKVSVVLMGMEMKRLVKRLPGQMYQRWD
  soluble fraction (log2): -2.13

## HMIPRNLEDLVRENQIGLVILKIVEIIGEDNIRDLDPETIYFINRILNELNLKKIRNNILSEALPPR
  soluble fraction (log2): -1.36

## HMIPSEQYNTALTEIGLSTRAHNSLRRAGIMTLGQLIEKTRDGLPPLPGFGDKSQVEVQDLLTGLGYPI
  soluble fraction (log2): -0.187

## HMIPSGISEHPISKLPLSMSIIHRLELAGIKTIGDITGENFSRLQEIPRIGKVTAKRILEAIQSYSEQLP
  soluble fraction (log2): -0.401

## HMIPYQDPLPKGAEESLLSKYPGFEITGVHFVNDTNFIGYKVRLERGEDREEISLDVNGKFL
  soluble fraction (log2): -0.308

## HMIQADFIPQVEQRLADRGLSMSGDVMAAFLDRAGYGLRHVSNEIEKLSLYLGDRKKVTVEDVVQMVAPVR
  soluble fraction (log2): -0.381

## HMIQAGDLVFIWNPKKGDNFLIKVTPGMSQGTHFGQIKHTELMEREYGEGIVTPKGEVYYLLRPTLAGYTR
  soluble fraction (log2): -1.21

## HMIQIGEQIRYYRTKIGISQEALALMADINPAYIGQIERGIKSPTVNTIKKIANAMGINLHTLFT
  soluble fraction (log2): -2.94

## HMIQKTHPALEIVKEYFSSQAASEFEAERFFNYYTSNGWLIGGKTKMKDWQAAARNWILNTAK
  soluble fraction (log2): -0.999

## HMIQNEITLMLQVNGKLRGQIQVPSDASKEQIEQLAKDSEAAQKALAGASPKKIIVVPGRLVNIV
  soluble fraction (log2): -0.792

## HMIQQFTYAFAKDKGVVVLPGRDVLTLGMRAGADPLVLLEARRALGSSFELEPLDRDTYERTLADVFTADA
  soluble fraction (log2): -1.39

## HMIQRLNVNTEVLSTYIRNSNTPIEYLRQKLPNIDKFLKGELEPTFNQVYALSKLINIPTGLLLLKEPIS
  soluble fraction (log2): -1.86

## HMIQSEQIPFSKFLKEVDSGRVVQVEIQGNNINGVLSDGSKFKTYSPNYPELVGKLSDKGVSIVASPV
  soluble fraction (log2): 0.091

## HMIQTKNVTFTINEKTKIANIPLKSLKILSQEDNRITLSYEKNSLKIDEIISYFSDKNINILDITTD
  soluble fraction (log2): -1.59

## HMIQYRKILELHFKDISQRTISTSVGSSRNTVSDVIKRSEQLGLERLTDNMNNRWLEEFLFPEKQ
  soluble fraction (log2): -4.15

## HMIRALVPGQTLHGEIVGRNGGEVQVRLAEDMILNARVDQNIYLELGKDLTFEVKNNGATLTLSPL
  soluble fraction (log2): -0.42

## HMIRDTTMYPVSVNGKKRYEWTVSKSISDDELKQQVLELEEIKKWIEGHEIKKLIFVPGRAINIV
  soluble fraction (log2): -0.696

## HMIRDVDYNTFVSMVQEGKVGQVEIQEQNNRILFTDKDERTVYKTAMVPDSDLISRLLEAGVSTS
  soluble fraction (log2): 0.359

## HMIRTGEVVTGKVINVKEDQIILNIGFKSDGIITRNEYTNDNSLDLRTVVHEGDEIEAKVLKVNDGEGQVV
  soluble fraction (log2): 0.401

## HMIRVGRPQYKRGEFVSFDFDNGRKKTEMYGRVDVIDSYGTFGQGREVSYDIRASDGILYKHIPESSVYGF
  soluble fraction (log2): -1.17

## HMIRVVSIEDQPWFVAADVLKSLGMPTDKGVGKYLLALGSDERMLTTHGQIGGKGMAVTTIISESGLY
  soluble fraction (log2): -0.67

## HMISDAEWKIMNVLWEEQPRTMMQITKELQEETGWTKHTVMTYLKRMESKKIIHYVEGEKAKLYYS
  soluble fraction (log2): -0.133

## HMISDDLYQAVLDFTLTQDTISISRLQQNFNLGWPRARQLYDQLMQNGIIEPPDEANSAKGAVVIANKRG
  soluble fraction (log2): 0.697

## HMISIKEAVFPFSRFPGVDTLLGPEMKSTGEVMGLADNFGHAYAKSQIASGSKLPESGTLFVSVKNSD
  soluble fraction (log2): -0.467

## HMISKRFQIDEENAHKRIDIFLSHEFDSISRGIVQELIVKGEVLVNDKVTKRNYKLKTGDLVDITINL
  soluble fraction (log2): -2.98

## HMITDQQKEQLSSLLKQAEAALAKAAANDQVLAAHKDEAVELLKSTSATSADAADLINELTELLKPYQ
  soluble fraction (log2): 0.973

## HMITEDQVIARIGLLSPAEKSLLKDKLERFRRLTLSEQQHLREFHSALDNHDKRTDLLNVLRKYNDWVNQL
  soluble fraction (log2): -1.99

## HMITEQEFQRVAAYVKNKAGINLNEKKVLVQGRLDSYMQRKGYSSYDEFMDRVERFPTGPEAEDLMNALTT
  soluble fraction (log2): -0.0412

## HMITFRINQQSQVGLRLDKFIVQQMPDYSRTRIQSWIKTKNILVNGEGKKSGYALEFDDLVEVTIPE
  soluble fraction (log2): -4.81

## HMITGREMDVLEALWSSEKPLVASDIPKMKPSLSISSVQLALRNLVKKKLVEVADIVYSGTVLSRSYRP
  soluble fraction (log2): 0.0724

## HMITIDNYFNKEKELDFSSFPEALRKGHGFVSKATAHGSSWVSYHSSDAIKKTIDIYLSKLNEYLSNNAKA
  soluble fraction (log2): -1.08

## HMITLYDLLGVSKTASSQEIKTAFKKKALQYHPDKNDGNPDKEEIFKRINMAYQVLGQPQSRANYDFSITP
  soluble fraction (log2): -0.483

## HMITNMIIIMKPNASEEAIEKVKHLIESKGLQAHLSKGDEVTIVGVVGDKTRLHDSNIEISEGVDKIVNVT
  soluble fraction (log2): 0.497

## HMITPAGVPPALLPVFDQFTLPDGTLRRGAVAAALRALYGPDAPQSGKRYQMEYDRVMAWHSQYFTSLH
  soluble fraction (log2): -0.759

## HMITPKQTAETLGIATSTLRRWASEFEPFLSLRTGVKRTYTTDDITTLKRVKDLFAQGLKTEQVREAL
  soluble fraction (log2): -0.287

## HMITPNQAAVTLKVSTSTLRRWSSDFEPFLSPRKGVKRLYTIEDIATLKRIQGLYKQGMNTAQVQA
  soluble fraction (log2): -2.25

## HMITQQEFQQKLEALLSRAEAESFHIKKEEAESFFSGDELTGEQMKLVFDYLLSKKIIVEGYLK
  soluble fraction (log2): -0.918

## HMITTEEVLNRIRKKVDHPATIRELQKALSIADDDRHRFRRRIRTLVASGALVRIRGNRYGLPSK
  soluble fraction (log2): -0.213

## HMITTWAGKATTDVYGRVDANPKADAVLVIKTGWTVQVVGSKTAPDGGTWYKLIYNGKTMYANSKFIVK
  soluble fraction (log2): -3.65

## HMITVEAPMPGKVLSVNVKAGDKVEAGDVLLILEAMKMQNEIMAPEDGTVSDVRVSAGDTVATGDVMVV
  soluble fraction (log2): 0.0808

## HMIVIMAKESSPAELEGVKNRIESHPGLRPQVFDGVERIVVGVLGSIPPDLKDEIELLPGVIEVVPISK
  soluble fraction (log2): -0.177

## HMIVVLKHGVTEQQMRNLIAWFKDQGVDVHVSRGIYQTVLGLVGDTSDIDVDLLRMLDIVDAVKRIT
  soluble fraction (log2): -2.1

## HMIVVMAADSSREDLDLVQGRIEARGLRAQISQGVERIVIGVLGSLPPDLKDEMELLPGVREVLVIS
  soluble fraction (log2): -1.57

## HMIYGNGVTDLKDLANGATIIIPADDSNETRALFLLQQEGLIKLPDDADAAKGVSTLDIVDGGGWVTSM
  soluble fraction (log2): 0.0362

## HMIYKLIADRLKNRINSDEFEVGDALPSEKALAGELEVSVMTIRKALTLLESEKLIVKRHGSGSYVARKSN
  soluble fraction (log2): -1.77

## HMIYRTTSVPIDNISTQKFNLQEGWIEMNKNEVEDFIRQKNLELVVTDSNVMLDKFALNGDPNKFKVFKY
  soluble fraction (log2): 0.0778

## HMKADTSPEAQKKIIAAFEPYSVNKDQIEKLIQRRIDSITPAQVIRLRKILASLKDGMSSPEDWFE
  soluble fraction (log2): -0.195

## HMKAERLLALLTILLSGKRVSARWLSEELEVSERTVYRDVEALSEAGFPVYATTGRDGGFSLIDGF
  soluble fraction (log2): -2.01

## HMKAKPTLLTPYEERLKGWLETDSRRPKRDRRTGLALFAKLQQEGFTGSYTRVTEYIRRWRDSGG
  soluble fraction (log2): -2.87

## HMKALPSAEDVALARESGRVLSTVLQTRAETQQIDFHDDKGAVRSVTLPTTALRLLLDVLTEIGQGNAV
  soluble fraction (log2): -0.106

## HMKALRNQDVVVGKPLAMAVYDQHGVLLLGRGHVVISESQRQQLLERGFSIDAEQLGRLRAAIEATQRV
  soluble fraction (log2): -1.17
